The record followed here is patent publication CN106957364A (UNIV SHANGHAI JIAOTONG, dated 2017).

In the assay the target is T1, hFcRn&b2M蛋白 (human, UniProt P55899 24-297; P61769 21-119, limits assumed).
T1 construct: also called hFcRn&β2M; hFcRn蛋白
Nature of the assay: affinity measurement at pH 6.0, hFcRn&b2M as ligand, scFv as sample (method not named).

T1 sequence (P55899 24-297 limits assumed, chain 1 of 2): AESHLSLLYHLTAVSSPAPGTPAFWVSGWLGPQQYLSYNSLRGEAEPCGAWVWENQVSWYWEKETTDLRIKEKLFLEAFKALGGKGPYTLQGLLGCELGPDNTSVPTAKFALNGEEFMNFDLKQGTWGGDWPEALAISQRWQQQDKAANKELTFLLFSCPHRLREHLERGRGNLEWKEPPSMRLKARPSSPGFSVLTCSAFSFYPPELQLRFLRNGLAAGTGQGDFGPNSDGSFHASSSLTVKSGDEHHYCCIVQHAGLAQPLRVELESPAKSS
T1 sequence (P61769 21-119 limits assumed, chain 2 of 2): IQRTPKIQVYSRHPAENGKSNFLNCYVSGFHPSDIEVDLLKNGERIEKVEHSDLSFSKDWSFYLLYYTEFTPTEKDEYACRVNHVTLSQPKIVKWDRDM

B1: 单链抗体FnAb12 (scFv)
scFv: DIQLTQSPSSLSASVGDRVTLTCQATQDIDNNLNWYQQKPGKAPKLLIYDASNLETGVPSRFSGSGSGTDFTFTISDLQPEDVATYYCQQYYNLPLTFGGGTKVDIKRSRGGGGSGGGGSGGGGSLEMAEVQLVQSGAEVKKPGASVKVSCKASGYTFTSYDINWVRQATGQGLEWMGWMNPNSGNTGYAQKFQGRVTMTRNTSISTAYMELSSLRSEDTAVYYCARGVDLGDGWGQGTLVTVSS
notes: Single-chain antibody from a phage library; also called FnAb12抗体; 单克隆抗体FnAb12
What is called Kd is a measure of binding affinity in units of concentration. Low readings indicate higher affinity, high ones lower affinity. In turn, B1 displayed a Kd of 15 nM.
